According to the supplement of paper PMC5998384:

What was measured:
HeLa Kyoto [1] = experiment: solubility in G1/S (NP-40 vs SDS abundance) (log2 ratio); higher = more soluble; settings: cell cycle stage: G1/S
HeLa Kyoto [2] = experiment: melting temperature (median over replicates), in situ; higher = more thermally stable
HeLa Kyoto [3] = experiment: solubility change mitosis vs G1/S (difference of NP-40 vs SDS log2 ratios) (log2 ratio difference); higher = more soluble in mitosis
HeLa Kyoto [4] = experiment: thermal stability score vs G1/S (z-score of summed log2 fold changes over temperatures); higher = more thermally stable than in G1/S
[5] = cell cycle stage: early G1 (4.5 h after nocodazole release)
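Throughout, for melting temperature (median over replicates), in situ: HeLa Kyoto cells synchronized by double thymidine or nocodazole block, proteins quantified by TMT10plex mass spectrometry, three independent biological replicates.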
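Throughout, for solubility change mitosis vs G1/S (difference of NP-40 vs SDS log2 ratios): synchronized HeLa Kyoto cells (double thymidine block for G1/S, nocodazole release for mitosis), protein amounts in NP-40 versus SDS lysates quantified by mass spectrometry, three biological replicates.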
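Throughout, for solubility in G1/S (NP-40 vs SDS abundance): HeLa Kyoto cells arrested at G1/S by double thymidine block, proteins quantified by TMT10plex mass spectrometry in mild NP-40 versus SDS extracts, three biological replicates.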
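Throughout, for thermal stability score vs G1/S (z-score of summed log2 fold changes over temperatures): synchronized HeLa Kyoto cells, proteins quantified by TMT10plex mass spectrometry, three biological replicates, mitosis taken 0.5 h after nocodazole release, G1/S directly after double thymidine block.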

Row | Sequence | solubility in G1/S (log2) (HeLa Kyoto [1]) | melting temperature (HeLa Kyoto [2]; cell cycle stage: G1/S) | melting temperature (HeLa Kyoto [2]; cell cycle stage: mitosis) | solubility change mitosis (log2) (HeLa Kyoto [3]) | thermal stability score (HeLa Kyoto [4]; [5]) | thermal stability score (HeLa Kyoto [4]; cell cycle stage: mitosis)
1 | MFSSVAHLARANPFNTPHLQLVHDGLGDLRSSSPGPTGQPRRPRNLAAAAVEEQYSCDYGSGRFFILCGLGGIISCGTTHTALVPLDLVKCRMQVDPQKYKGIFNGFSVTLKEDGVRGLAKGWAPTFLGYSMQGLCKFGFYEVFKVLYSNMLGEENTYLWRTSLYLAASASAEFFADIALAPMEAAKVRIQTQPGYANTLRDAAPKMYKEEGLKAFYKGVAPLWMRQIPYTMMKFACFERTVEALYKFVVPKPRSECSKPEQLVVTFVAGYIAGVFCAIVSHPADSVVSVLNKEKGSSASLVLKRLGFKGVWKGLFARIIMIGTLTALQWFIYDSVKVYFRLPRPPPPEMPESLKKKLGLTQ [SLC25A3] | -0.0671 | 56.3 °C | 56 °C | -0.0903 | -1.42 | -3.39
2 | MFSVESLERAELCESLLTWIQTFNVDAPCQTVEDLTNGVVMAQVLQKIDPAYFDENWLNRIKTEVGDNWRLKISNLKKILKGILDYNHEILGQQINDFTLPDVNLIGEHSDAAELGRMLQLILGCAVNCEQKQEYIQAIMMMEESVQHVVMTAIQELMSKESPVSAGNDAYVDLDRQLKKTTEELNEALSAKEEIAQRCHELDMQVAALQEEKSSLLAENQVLMERLNQSDSIEDPNSPAGRRHLQLQTQLEQLQEETFRLEAAKDDYRIRCEELEKEISELRQQNDELTTLADEAQSLKDEIDVLRHSSDKVSKLEGQVESYKKKLEDLGDLRRQVKLLEEKNTMYMQNTVSLEEELRKANAARSQLETYKRQVVELQNRLSEESKKADKLDFEYKRLKEKVDSLQKEKDRLRTERDSLKETIEELRCVQAQEGQLTTQGLMPLGSQESSDSLAAEIVTPEIREKLIRLQHENKMLKLNQEGSDNEKIALLQSLLDDANLRKNELETENRLVNQRLLEVQSQVEELQKSLQDQGSKAEDSVLLKKKLEEHLEKLHEANNELQKKRAIIEDLEPRFNNSSLKIEELQEALRKKEEEMKQMEERYKKYLEKAKSVIRTLDPKQNQGAAPEIQALKNQLQERDRLFHSLEKEYEKTKSQREMEEKYIVSAWYNMGMTLHKKAAEDRLASTGSGQSFLARQRQATSSRRSYPGHVQPATAR [HOOK3] | 0.753 | 50.4 °C | 51 °C | -0.00542 | 0.316 | 0.85
3 | MFTLAEVASLNDIQPTYRILKPWWDVFMDYLAVVMLMVAIFAGTMQLTKDQVVCLPVLPSPVNSKAHTPPGNAEVTTNIPKMEAATNQDQDGRTTNDISFGTSAVTPDIPLRATYPRTDFALPNQEAKKEKKDPTGRKTNLDFQQYVFINQMCYHLALPWYSKYFPYLALIHTIILMVSSNFWFKYPKTCSKVEHFVSILGKCFESPWTTKALSETACEDSEENKQRITGAQTLPKHVSTSSDEGSPSASTPMINKTGFKFSAEKPVIEVPSMTILDKKDGEQAKALFEKVRKFRAHVEDSDLIYKLYVVQTVIKTAKFIFILCYTANFVNAISFEHVCKPKVEHLIGYEVFECTHNMAYMLKKLLISYISIICVYGFICLYTLFWLFRIPLKEYSFEKVREESSFSDIPDVKNDFAFLLHMVDQYDQLYSKRFGVFLSEVSENKLREISLNHEWTFEKLRQHISRNAQDKQELHLFMLSGVPDAVFDLTDLDVLKLELIPEAKIPAKISQMTNLQELHLCHCPAKVEQTAFSFLRDHLRCLHVKFTDVAEIPAWVYLLKNLRELYLIGNLNSENNKMIGLESLRELRHLKILHVKSNLTKVPSNITDVAPHLTKLVIHNDGTKLLVLNSLKKMMNVAELELQNCELERIPHAIFSLSNLQELDLKSNNIRTIEEIISFQHLKRLTCLKLWHNKIVTIPPSITHVKNLESLYFSNNKLESLPVAVFSLQKLRCLDVSYNNISMIPIEIGLLQNLQHLHITGNKVDILPKQLFKCIKLRTLNLGQNCITSLPEKVGQLSQLTQLELKGNCLDRLPAQLGQCRMLKKSGLVVEDHLFDTLPLEVKEALNQDINIPFANGI [LRRC8D] | 0.141 | 53.7 °C | 53 °C | -0.126 | 0.491 | 0.22
4 | MFTSTGSSGLYKAPLSKSLLLVPSALSLLLALLLPHCQKLFVYDLHAVKNDFQIWRLICGRIICLDLKDTFCSSLLIYNFRIFERRYGSRKFASFLLGSWVLSALFDFLLIEAMQYFFGITAASNLPSGFLAPVFALFVPFYCSIPRVQVAQILGPLSITNKTLIYILGLQLFTSGSYIWIVAISGLMSGLCYDSKMFQVHQVLCIPSWMAKFFSWTLEPIFSSSEPTSEARIGMGATLDIQRQQRMELLDRQLMFSQFAQGRRQRQQQGGMINWNRLFPPLRQRQNVNYQGGRQSEPAAPPLEVSEEQVARLMEMGFSRGDALEALRASNNDLNVATNFLLQH [UBAC2] | -0.173 | 50.4 °C | 51.2 °C | -0.209 | 0.579 | 1.39
5 | MFWKFDLHTSSHLDTLLEREDLSLPELLDEEDVLQECKVVNRKLLDFLLQPPHLQAMVAWVTQEPPDSGEERLRYKYPSVACEILTSDVPQINDALGADESLLNRLYGFLQSTGSLNPLLASFFSKVMGILINRKTDQLVSFLRKKDDFVDLLLQHIGTSAIMDLLLRLLTCVERPQLRQDVVNWLNEEKIVQRLIEQIHPSKDENQHSNASQSLCDIIRLSREQMIQVQDSPEPDQLLATLEKQETIEQLLSNMFEGEQSQSVIVSGIQVLLTLLEPRRPRSESVTVNSFFSSVDGQLELLAQGALESTVSSVGALHALRPRLSCFHQLLLEPPKLEPLQMTWGMLAPPLGNTRLHVVKLLASALSANDAALTHELLALDVPNTMLDLFFHYVFNNFLHAQVEGCVSTMLSLGPPPDSSPETPIQNPVVKHLLQQCRLVERILTSWEENDRVQCAGGPRKGYMGHLTRVAGALVQNTEKGPNAEQLRQLLKELPSEQQEQWEAFVSGPLAETNKKNMVDLVNTHHLHSSSDDEDDRLKEFNFPEEAVLQQAFMDFQMQRMTSAFIDHFGFNDEEFGEQEESVNAPFDKTANITFSLNADDENPNANLLEICYKDRIQQFDDDEEEEDEEEAQGSGESDGEDGAWQGSQLARGARLGQPPGVRSGGSTDSEDEEEEDEEEEEDEEGIGCAARGGATPLSYPSPGPQPPGPSWTATFDPVPTDAPTSPRVSGEEELHTGPPAPQGPLSVPQGLPTQSLASPPARDALQLRSQDPTPPSAPQEATEGSKVTEPSAPCQALVSIGDLQATFHGIRSAPSSSDSATRDPSTSVPASGAHQPPQTTEGEKSPEPLGLPQSQSAQALTPPPIPNGSAPEGPASPGSQ [PPP6R1] | 0.169 | 53.1 °C | 50.6 °C | -0.0433 | -1.2 | -0.743
6 | MGAPLLSPGWGAGAAGRRWWMLLAPLLPALLLVRPAGALVEGLYCGTRDCYEVLGVSRSAGKAEIARAYRQLARRYHPDRYRPQPGDEGPGRTPQSAEEAFLLVATAYETLKDEETRKDYDYMLDHPEEYYSHYYHYYSRRLAPKVDVRVVILVSVCAISVFQFFSWWNSYNKAISYLATVPKYRIQATEIAKQQGLLKKAKEKGKNKKSKEEIRDEEENIIKNIIKSKIDIKGGYQKPQICDLLLFQIILAPFHLCSYIVWYCRWIYNFNIKGKEYGEEERLYIIRKSMKMSKSQFDSLEDHQKETFLKRELWIKENYEVYKQEQEEELKKKLANDPRWKRYRRWMKNEGPGRLTFVDD [DNAJC25] | -0.101 | 50.5 °C | 50.2 °C | 0.00727 | 0.0789 | -0.224
7 | MGARASGGPLARAGLLLLLLLLLLLGLLAPGAQGARGRGGAEKNSYRRTVNTFSQSVSSLFGEDNVRAAQKFLARLTERFVLGVDMFVETLWKVWTELLDVLGLDVSNLSQYFSPASVSSSPARALLLVGVVLLAYWFLSLTLGFTFSVLHVVFGRFFWIVRVVLFSMSCVYILHKYEGEPENAVLPLCFVVAVYFMTGPMGFYWRSSPSGPSNPSNPSVEEKLEHLEKQVRLLNIRLNRVLESLDRSKDK [BRI3BP] | -0.138 | 55.1 °C | 53.1 °C | 0.0237 | -0.814 | -3.07
